Protein production data for 26 sequences are collected here from a protein production outcome set (Wang et al. 2014).
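Note: failed if final PepcDB status was selected cloned or expressed and not failed if soluble or beyond.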

The data set is described as follows: label from the status in PepcDB records.
In the case of “MNNPQCSYTVRCFFLALLVNLFLPNILPRQLASAQDVPSEASSDAPDLGVVWTPSTAPDSALAALDRIAATGATAVRLTHLPADTTATTIATRADSLGLRLYVDLPMADGSAPRPDEARPQADASLDQLRSLANRHASITHVGLARGASTTGSRRCDRLRRWTERIHDASASLHTYYVTPFVPSADRCADAVDQPLLDLRGHPRPTDRWRAWRTRTDSVGIGALGTWTRPAAASGLRVPHSAERQARYLETTLSRLLDPTRAAPPVVFVARWQDDDASLLPSRRYGLHDAAGTPRPAATVVRGLYSGTQRTFAFPDGSAPAGTSGLVLVGWGLVAVLGLLYARSLFVRETAVRYFTTPGFYREALRDGREVSFGANSLLLGLVGGSLGVAAARMARLATAQPETERVLAALPRVVGTALAPGVEHPTLAGVAVGGGALVLLLLWTGAGVAMARLGTRFTVAQGLMLVTWPCWPVLLAPPVALAAGPNAPLSPSLSTLVLLGGGTLVLLSVTLRVLFDYWRVTDAPAWTLLPLAALSPLALVGASLLVAAQYGVSFSLLWRLAVYT”, the protein production entry is given as “failed”.
In the case of “MNRIKEVLEEKGIKQTWLAEKLGKSFSIVNSYVCNRRQPSLDILFEIAKILEVDVRVLIGTKENRQKSK” it was “not failed”; in that of “MKYSEAQQGRVFVIRLEDGDIFHEEIERFAKEKGIERAYLNVVGGADKESKLVVGPEESRTYPVNPMEHELYDAHEIVGTGTLFPDDTSAPVVHLHMACGREENTVTGCVRNGVKVWHVMEVILVELLGTQARRLPDKATGFKLLVPLEHHHHHH”, “not failed”.
As for “MIMANWQSIDELQDIASDLPRFTHALDELSRRLGLDITPLTADHISLRCHQNVTAERWRRGFEQCGELLSENMINGRPICLFKLHEPVQVAHWQFSIVELPWPGEKRYPHEGWEHIEIVLPGDPETLNARALALLSDEGLSLPGISVKTSSPKGEHERLPNPTLAVTDGKTTIKFHPWSIEEIVASEQSA”, the protein production entry was “not failed”.
As for “MGKALLIVNPSSGKEKGKTYQGKTEEVLKKRYDEVEVRLTEKAGDATEFASWASEQGFDAVIAMGGDGTLNETINGLAIHEKRPDFGFIPLGTVNDLARSVGIPLKPEKAIQALEKAKAIPMDIGRIGDQYFMNVLAIGMIAQAVDQVSVEQKTKFGSVAYFLEGLKAFNRNELLHFKLEYDEEVWEGEAALVVAGLTKSVGGMESWAPDAKIDDGYLHVVVLTKLGLLDAANMIPQLIRGNLKNSDGVVYIKTKKLTIDASGDDLSINVDGDPGPGVPAEIEVLGSHLNILAPKKSSQKRFGPFILKK”, the protein production result is recorded as “failed”.
Regarding “MALVPVYCLCRQPYNVNHFMIECGLCQDWFHGSCVGIEEENAVDIDIYHCPDCEAVFGPSIMKNWH”, the protein production result is reported as “not failed”.
In the case of “MPSIVKGIIPPVLTPMKSDRSIDFEALERLVEHLIAGGVDGLFALGSSGEVAFLSDEDRATVIREIVRIAAGRVPVYAGVIDMQVNRMLGHIKAAEEAGVD” it was “not failed”.
In the case of “MGPDGPPCEISTWKHNSMKQIALSLFVIAASGAYVWDQAGKNPANDMLGEALPADAAEAPTVQPKEPASAAALPVLRTSPAPLDPRFRTRLPIARETTAGIAVPAERPNDPVKQTVVPVAPQPSPAPPAQPVTPAVTDPASSTPSFAVTPAIYIPVPQPRPAYPNAPVRVVRVGMKPAAHGYADGVYTGPTADAYYGIIQIQALVQGGQLTALKVLKYPSDRRTSVNINRQALPMLRDEAISAQSADVDIISGATLTSRAFIQSLRGALKKASSLEHHHHHH” it was “failed”; in that of “KYPFLREAGSSFKDRDVTKMSDLIATWDGQDIKGPALIGVPLSKSSISHSGASFAPGTIRQALKHSSAYSAELGEHVVSELLYDLGDIDIHVTDIVKSHHHIFQTMHALLSDHPDWVPLILGGDNSISYSTIKAIAQTKGTTAVIQFDAHHDVRNTEDGGPTNGTPFRRLLDEEIIEGQHLIQLGIREFSNSQAYEAYAKKHNVNIHTMDMIREKGLIPTIKEILPVVQDKTDFIFISVDMDVLDQSHAPGCPAIGPGGLYTDELLEAVKYIAQQPNVAGIEIVEVDPTLDFRDMTSRAAAHVLLHALK”, “failed”.
For “MSGTGEVRGMRAARIAAGAVIPGELALAVCLAAGVRPPVWATAAAEAVALAVLMLEAWVLRSLYASRRAQGLEPPAALRAAVRAVVPARVRRLLVHELRAAASLGRWAARRKHGVRPGDHVAGYTGPQTAMMYGLIFVSVIETVALAVLIPWPVVHRVLLVLDVYGVLMMLGLHAACVTRPHVARPDGSLRIRYGALFDLAVPADAVASVRVDRCYPQGRLVTLSEKGVLDLIVAGQTTVTLELTRPLVFTRPLGGRGEARTIRFHADDPRALVGALRRPALT”, the protein production entry was “failed”.
In the case of “MEICSMSQPSSDQSVASFESKSLNILGEHIPVSELAGCEECDTVYRKVKLAAGERAYCVCCGAELYRKTRSLTSLLALVVTALIIFAIANSFPIVKVELQGNTSQTTLLGAAWTMFQIDRALVGILILFTTFIVPLLDLLLLTYILSSVGIFKQRPPYLRLALRILFLFRVWGMVEVFLIGVLVTLVKLVGMVVVIPGVALWAFAILSLLLVYIASVKIKDIWDEVDRCVP” it was “failed”.
In the case of “PGVELRTAADFADDPRPLFELDAETSGDEPGDVDHEFTDYEAWLEETWRHPLLSHELTSVALVDGRPAAFSAARTDGATRYHTGMTGTARAFRGRGLAKLAKNDSLHRARAAGFTEAFTGNDAGNEPMLAINKWFGYEICATEVRYVRELG” it was “failed”.
In the case of “MLMDGHTHTELCPHGSGEATEKMIQRAIQLGFQRYCITEHAPLPPAFRDQYEGTPAGYTEASLRENQVADYLALANGLKTKYAGQIEISVGFEVDFLPEHVAWTRDFLNTYGPRTQESILSVHFMRGLRQHFWCVDMSTDDFAAGFGQWLKTPQRVFEQYYQTVLASVQADLGPYAPQRIGHMSLVRKYQDYFGLTEPLDVHNLQLVDQTLALVKQQRRQLDLNLAGLYKPYCNDFYPGEQILQRAQKLDIPLVYGSDAHDIASVGRGYHLIKKLIEGLEHHHHHH” it was “failed”; in that of “MSKFRSCSWKCSDMGKSLCGAGGLVWTPPHPLLRKALSHRGRGVKDTNFVGMTTRAVRKGTLRARALRRTQTVEEKTLWLALRNRFLNVKFRRQWPMGGYVVDFVCFEAKLIVELDGSQHAEEAARDYDAVRTEFLEAGGFTVLRFWNNEVRKNLEGVLLEIQKRLP”, “failed”.
In the case of “MMDLHTHTVYSDGIGLIRDNVAWAEKRGLKIVGISDHIHFFTPSRFSAYINEINVIKEESEIVVLAGIEANILENGPDITDEFRKKLDYAIASVHEWFGRNGTHEYINYVKKAIMDDNVDIIGHFGNSFPWIGYPTREEIDEILDLAEAYGKAFEISARYKVPDLEFIRECVKRGIKLSLATDAHRPEDVGKVSWSLKMLEKAGGTKEDLIFSEYL”, the protein production result is recorded as “failed”.
Next, “MVEFELLRSLGIMLLAALGVVLVARTARVPNIVAYIGAGLLLGPALGVLTVTHTIELIAEFGIILLLFLVGLELSLDKIKAVGTTAFVAGGVQMGGTALGGGLLAGLVGVPVVEAVVVAVAIMFSSTVVVVKMLEKQSDLDAPYGQIAVGVLLVQDLVVVMVLTFVAGLAGPGELAWADVARGLGQAFVGMVLLGGLIAAAARYVLPPAIQWISRMTEGLFIWSLFWCFLVVLGAEALHLSPELGAFLAGIALAQLPQCHELRQRVHPLMNFFIIVFFVSLGLQMELGAALARWPLALALAAFVMVVKPLLFFGVLPRLGHGEETSFRTGLSLAQISEFSLIFGALALSSGLIDEALLSVITLVGLVTFALSSFLLLYSDRLYAAVKPYRPLAWLGARQEAPAPPPDGLQGHVIVVGLNTLGRCLVDRLTAAGETVVAVDTDPEKLARRSVSTVHGNAVHETTREAADWEDAKLVVSSLSIEGTNNLLAYHAQRAGVPCSIHAFDRTSENSLRTFGVDHLIRSKHEGARRLLDELKSRAVLS”: “failed”; “MLHVHILSWVLAIILFIATYLNYSKTQGASPYYKPLHMALRLFMLLTLISGFWELIEEFMAASNGEGGNHMLLTLKMLCGLAVIAFMEISIAKRKKQQTSHKFFWITIILIIITMAIGVILPWGPISKIFGIS”: “failed”.
As for “MVPKFYKLSNGFKIPSIALGTYDIPRSQTAEIVYEGVKCGYRHFDTAVLYGNEKEVGDGIIKWLNEDPGNHKREEIFYTTKLWNSQNGYKRAKAAIRQCLNEVSGLQYIDLLLIHSPLEGSKLRLETWRAMQEAVDEGLVKSIGVSNYGKKHIDELLNWPELKHKPVVNQIEISPWIMRQELADYCKSKGLVVEAFAPLCHGYKMTNPDLLKVCKEVDRNPGQVLIRWSLQHGYLPLPKTKTVKRLEGNLAAYNFELSDEQMKFLDHPDAYEPTDWECTDAP”, the protein production result is recorded as “failed”.
Next, “MRALIVSNPNSTTQSAEMFRHVIPTLRAVPGLELRAQMTHYAGHARHMCENLTVEDYDVVIAVGGDGTVNEVINGLLGDLPSAPPALAVIPTGSANVFARALGLPADPAQAAEVLADALHKGSTRRINLGKWGS”: “failed”; “MINEFFKETVWEEAWKEDQQTAVNKMKKAGMDKVHHFDLRAKSFNEQAFNEEGRKRTKRIMKWLEGQGVTFKDTSILDIGAASGGFTVPFAERGAEVTAVEPSLPLVELMKENITGITNGKVKIVAEPFEDIDIQAKGWGNAFDFVFVSMCPAIADWESVKRVLSCARQFCYISLSAGSREHSLLNEIWPLVSDQPLKNEHSEMAYLLHLLFLKGYTYESLVTREMKTREVSRETALNEVMDMLRMFGLPADDRNRKITAAYLERTYPNDKVEIRQGGRFGKVLIRLQNQNMYMNS”: “failed”; “VDEKALKHITEMGFSKEASRQALMDNGNNLEAALNVLLTSNKQKPVMGPP”: “not failed”.
In the case of “MARLIGFKMAEVHRGRIVMQLDPDQSLENTAGLLHGAIAAALLDTAMGCAISTQQPAGQGSVTMDLKLSYLRPLSVRSGTIVAEGRVVKLGRQSSYTEGFVYDGAGKLAVHATATFAMLGAGPLEHHHHHH” it was “failed”; in that of “MSLWRLPMTLKTMTLAFAVTGLGVLAGSSPSVVQQRDGSQVVTPDEPKYNEDTGFYEYEKDGHKVQMNKDDVKTIEEVKLEHHHHHH”, “not failed”; in that of “MSEQQHVRADGTVTFLPHRLNRHPVVVRGLTADELWICCGLSGAAGLLVGAPLSWVFRTIAIAPTFVVLGVALGVFIGGGILRRLKRGRPDTWLYRQLQWRIATGHPLMAGWVGGHVLISRSGFWSTRRSMR”, “failed”.
On to “MRKSKLTFIATFLILLFLSMPYKAHAASQTPITRADAEQRALTMINLNWTYSKSKNGVLPSAYSGSITAPSQFRGIENVVATGIPYCWGGFDGLNSSSYGESWTNFTDAVNKGAFVGNVKSSSYGHITGTAGLDCSGFVQATFNIKDYKLSTSTIFNQYFTKIDIKDIKHMDILNLPGNHVVIFDKWGTRNGVNGAYTYEATPDTTYGGIQGTKQYFMSMNTVSQYIPGRYVNIKEVAYVQVINASSLNIRTGPSTSYPIIGTISQNQIAEVTGYSSDGTWYKIKINGIEGYASSTYLTYVNNLEHHHHHH”, for which the protein production result is recorded as “failed”.
In the case of “MYNKTILESQHTLIPMPSTSTNAQPTLAKQLFTMTWPMLFGVLSLMSFQLVDSAFIGQLGVLPLAAQGFTLPLQMVIIGIQVGLGIATTAVISKALGANDARYAKQLGGLVLMIGSIGVAVFGLLIWLLRYPILSLLSAPETVMPIIDSYWPWWLLSSWAGAVLYFYYSICRANGNTMLPGTMMMVTSGVNLVLDPLFIFTLDLGINGAALATLVAFGFGILVVAPRVKRNHWATTQWQDLNVMKSVTSIGNIMGPAMVSQLLPPLSSMLATKLLASFGTAAVAAWALGSRYEFFAIVSVLALTMSMPPMVGRLLGAKNYRDIQSLVGIAVKFILGFQLLIAAITFLLANPLALLMTSDTQVEQVLHMHLMIVPISLGSLGVCMLMVSICNALGKSYTALTISALRLFVFFLPCLWLGAQLDGIRGLLFGACVGNIMAGISAYLTYRKTIHKLAIKQATA” it was “failed”.
